Substitutions are numbered along the chain they refer to. Names and notes keep the numbering of the source.
B1: composite human mAb VH2/Vκ2 (antibody, V domains shown)
VH: QVQLVQSGSELKKPGASVKLSCKASGYTFTRYWMHWVKQAPGQGLEWIGNIYPDSDSTNYDEKFRTRATLTADTSTSTAYMELSSLRSEDTAVYYCTRMGFYAMDYWGQGTTVTVSS
VL: NIVMTQSPSSLSASVGDRVTITCKASENVVTYVSWFQQKPGQAPKLLIYGASNRYTGVPDRFSGSGSATDFTLTISSLQAEDVADYHCGQSYSYPLTFGQGTKLEIKR
notes: Human IgG4 (S241P hinge mutant) heavy chain and human kappa light chain
B2: composite human mAb VH1/Vκ1 (antibody, V domains shown)
VH: B1 VH with P41H, E82H, R87T, T91S, T112S
VL: B1 VL with S63T
notes: as for B1
B3: composite human mAb VH3/Vκ4 (antibody, V domains shown)
VH: B1 VH with K38R, A68V
VL: B1 VL with N1D, A68G, D85T
notes: as for B1
B4: composite human mAb VH1/Vκ3 (antibody, V domains shown)
VH: B1 VH with P41H, E82H, R87T, T91S, T112S
VL: B1 VL with N1D, A68G
notes: as for B1
B5: composite human mAb VH3/Vκ2 (antibody, V domains shown)
VH: B1 VH with K38R, A68V
VL: B1 VL
notes: as for B1
B6: composite human mAb VH3/Vκ1 (antibody, V domains shown)
VH: B1 VH with K38R, A68V
VL: B1 VL with S63T
notes: as for B1
B7: composite human mAb VH3/Vκ3 (antibody, V domains shown)
VH: B1 VH with K38R, A68V
VL: B1 VL with N1D, A68G
notes: as for B1
B8: composite human mAb VH2/Vκ1 (antibody, V domains shown)
VH: B1 VH
VL: B1 VL with S63T
notes: as for B1
B9: composite human mAb VH2/Vκ3 (antibody, V domains shown)
VH: B1 VH
VL: B1 VL with N1D, A68G
notes: as for B1
B10: composite human mAb VH1/Vκ2 (antibody, V domains shown)
VH: B1 VH with P41H, E82H, R87T, T91S, T112S
VL: B1 VL
notes: as for B1
B11: composite human mAb VH2/Vκ4 (antibody, V domains shown)
VH: B1 VH
VL: B1 VL with N1D, A68G, D85T
notes: as for B1
B12: composite human mAb VH1/Vκ4 (antibody, V domains shown)
VH: B1 VH with P41H, E82H, R87T, T91S, T112S
VL: B1 VL with N1D, A68G, D85T
notes: as for B1
B13: mouse mAb anti-FXI 34.2 (antibody, V domains shown)
VH: QVQLQQPGSELVRPGASVKLSCKASGYTFTRYWMHWVKQRHGQGLEWIGNIYPDSDSTNYDEKFRTKATLTADTSSSTAYMHLSSLTSEDSAVYYCTRMGFYAMDYWGQGTSVTVSS
VL: NIVMTQSPKSMSMSVGERVTLSCKASENVVTYVSWFQHKPEQSPKLLIYGASNRYTGVPDRFTGSGSATDFTLTISSVQAEDLADYHCGQSYSYPLTFGAGTKLELKR
notes: Mouse IgG purified from hybridoma supernatant by protein G

target: T1, human coagulation factor XI (FXI) (human, UniProt P03951 19-625); assay: cell-based or functional assay

Row | APTT (% NPP) | Binder
1 | 243 % NPP | B1
2 | 253 % NPP | B2
3 | 255 % NPP | B3
4 | 257 % NPP | B4
5 | 255 % NPP | B5
6 | 250 % NPP | B6
7 | 256 % NPP | B7
8 | 252 % NPP | B8
9 | 247 % NPP | B9
10 | 248 % NPP | B10
11 | 259 % NPP | B11
12 | 260 % NPP | B12

target: T1, human coagulation factor XI (FXI); assay: SPR (Biacore), FXI immobilized on CM5 chip, mAb as analyte
Experimental: (§1) Surface plasmon resonance was on a Biacore 2000 (GE Healthcare) equipped with a research-grade cm5 sensor chip to assess the affinity constants of the mAbs for FXI. Factor XI was immobilized using amine-coupling chemistry. the surface was activated for 7 min with a 1:1 mixture of 0.1 M N-hydroxysuccinimide and 0.1 M 3-(N,N-dimethylamino) propyl-N-ethylcarbodiimide at a flow rate of 10 l per min. The ligand at a concentration of 10 μg/ml in 10 mM sodium acetate, pH 5.5, was immobilized at a density of 1000 ru. An untreated flow cell served as a reference surface. All the surfaces were blocked with a 7 min injection of 1 M ethanolamine, pH 8.0. The following protocol was used to assess kinetic binding of the mAbs to FXI. […] The complex was allowed to associate and dissociate for 360 and 600 seconds, respectively. The surfaces were regenerated with a 10 seconds injection of 50 mM NaOH. Triplicate injections (in random order) of each sample and a buffer blank were flowed over the two surfaces. Data were collected at a rate of 1 Hz. The data were fit to a simple 1:1 interaction model using the global data analysis option available within BiaEvaluation 4.1 software.

Row | Kd | Binder
13 | 0.2 nM | B13

target: T1, human coagulation factor XI (FXI); assay: as above; remark: another data set of the same source
Experimental: as §1

Row | Kd | Binder
14 | 0.88 nM | B1
15 | 0.12 nM | B2
16 | 0.42 nM | B3
17 | 0.17 nM | B4
18 | 0.079 nM | B5
19 | 0.13 nM | B6
20 | 0.081 nM | B7
21 | 0.24 nM | B8
22 | 0.51 nM | B9
23 | 0.25 nM | B10
24 | 0.062 nM | B11
25 | 0.35 nM | B12

target: T1, human coagulation factor XI (FXI); assay: competition ELISA on coated human FXI; competitor biotinylated murine mAb anti-FXI 34.2
Text: The binding of the biotinylated antibody was detected with streptavidin-HRP (Sigma) and OPD substrate (Sigma. The reaction was stopped with 3M HCl, absorbance read at 490 nm on a Dynex Technologies MRX TC II plate reader and the binding curves plotted.

Row | Relative IC50 | Binder
26 | 0.92 relative to IC50 of mouse-human chimeric mAb anti-FXI 34.2 | B1
27 | 0.75 relative to IC50 of mouse-human chimeric mAb anti-FXI 34.2 | B2
28 | 1.13 relative to IC50 of mouse-human chimeric mAb anti-FXI 34.2 | B3
29 | 0.91 relative to IC50 of mouse-human chimeric mAb anti-FXI 34.2 | B4
30 | 0.87 relative to IC50 of mouse-human chimeric mAb anti-FXI 34.2 | B5
31 | 0.87 relative to IC50 of mouse-human chimeric mAb anti-FXI 34.2 | B6
32 | 0.99 relative to IC50 of mouse-human chimeric mAb anti-FXI 34.2 | B7
33 | 0.84 relative to IC50 of mouse-human chimeric mAb anti-FXI 34.2 | B8
34 | 0.93 relative to IC50 of mouse-human chimeric mAb anti-FXI 34.2 | B9
35 | 0.69 relative to IC50 of mouse-human chimeric mAb anti-FXI 34.2 | B10
36 | 0.98 relative to IC50 of mouse-human chimeric mAb anti-FXI 34.2 | B11
37 | 0.89 relative to IC50 of mouse-human chimeric mAb anti-FXI 34.2 | B12
